# Data from patent US20130145485.
# Experiments:
# Assay in all cases: cell_activity
# [1] = test system: ZFN 32398 (synthetic construct); details: pair 32401/32398, DLSSA reporter in Neuro2A; pVAX control 0.16
# [2] = test system: ZFN 9940 (synthetic construct); details: pair 12897/9940 with donor, CF iPS cells; 21 of 64 clones; scale: % puroR clones with targeted insertion
# [3] = test system: ZFN 32366 (synthetic construct); details: pair 32365/32366, K562 cells
# [4] = test system: ZFN 12897 (synthetic construct); details: pair 12897/9940 with donor, CF iPS cells; 21 of 64 clones; scale: % puroR clones with targeted insertion
# [5] = test system: ZFN 32365 (synthetic construct); details: pair 32365/32366, K562 cells
# [6] = test system: ZFN 32376 (synthetic construct); details: pair 32375/32376, K562 cells
# [7] = test system: ZFN 32401 (synthetic construct); details: pair 32401/32398, DLSSA reporter in Neuro2A; pVAX control 0.16
# [8] = test system: ZFN 32375 (synthetic construct); details: pair 32375/32376, K562 cells
sequence,measurement,setting,value
ACACCAATGATATTTTCTTTAATGGTGC (double strand) [32398 target site],activity (firefly/renilla ratio),[1],1.45
AGTGATTATGGGAGAACTGGATGTTCACAGTCAGTCCACACGTC (double strand) [9940 target site],activity,[2],33
ATATAGATACAGAAGCGTCATCAAAGCA (double strand) [32366 target site],activity,[3],9 % indels
ATTAGAAGTGAAGTCTGGAAATAAAACC (double strand) [12897 target site],activity,[4],33
CATCATAGGAAACACCAAAGATGATATT (double strand) [32365 target site],activity,[5],9 % indels
CCAACTAGAAGAGGTAAGAAACTATGTG (double strand) [32376 target site],activity,[6],12 % indels
CCTATGATGAATATAGATACAGAAGCGT (double strand) [32401 target site],activity (firefly/renilla ratio),[7],1.45
GCTTTGATGACGCTTCTGTATCTATATT (double strand) [32375 target site],activity,[8],12 % indels
